Target: Programmed Death 1 (PD-1) (UniProt Q15116 25-167, limits assumed)
Test: cell-based or functional assay

Chain of Programmed Death 1 (PD-1) (Q15116 25-167 limits assumed): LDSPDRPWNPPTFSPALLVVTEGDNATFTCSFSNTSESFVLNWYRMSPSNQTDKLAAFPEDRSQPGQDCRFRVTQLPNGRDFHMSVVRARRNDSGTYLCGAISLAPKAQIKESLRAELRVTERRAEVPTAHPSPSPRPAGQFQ

B1: BAP049-Clone-E (antibody, human IgG4 S228P, kappa)
heavy: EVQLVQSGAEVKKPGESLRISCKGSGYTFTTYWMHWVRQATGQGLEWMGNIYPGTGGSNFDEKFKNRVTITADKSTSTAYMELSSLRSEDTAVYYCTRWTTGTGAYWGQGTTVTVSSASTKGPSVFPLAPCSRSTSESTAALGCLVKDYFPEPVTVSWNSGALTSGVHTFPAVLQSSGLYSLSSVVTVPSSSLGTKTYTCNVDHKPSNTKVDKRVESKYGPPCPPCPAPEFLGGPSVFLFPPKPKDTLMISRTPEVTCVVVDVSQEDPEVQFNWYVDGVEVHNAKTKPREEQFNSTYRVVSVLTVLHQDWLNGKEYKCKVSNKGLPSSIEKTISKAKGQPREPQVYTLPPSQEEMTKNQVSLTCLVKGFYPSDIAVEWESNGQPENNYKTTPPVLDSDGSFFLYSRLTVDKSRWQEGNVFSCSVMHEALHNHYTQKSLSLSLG
light: EIVLTQSPATLSLSPGERATLSCKSSQSLLDSGNQKNFLTWYQQKPGQAPRLLIYWASTRESGVPSRFSGSGSGTDFTFTISSLEAEDAATYYCQNDYSYPYTFGQGTKVEIKRTVAAPSVFIFPPSDEQLKSGTASVVCLLNNFYPREAKVQWKVDNALQSGNSQESVTEQDSKDSTYSLSSTLTLSKADYEKHKVYACEVTHQGLSSPVTKSFNRGEC
- ex vivo EC50 for PD-1 blockade (IL-2 change in SEB ex-vivo assay): 0.42 µg/mL
